Measurements taken from EP4667494A2 (Fundación Instituto de Investigación Sanitaria Fundación …, dated 2025).

T1: CD79b (UniProt P40259 29-229, limits assumed)
T1 construct: whole, on cells; Endogenous CD79b on human lymphoma cell lines
T1 sequence (looked up): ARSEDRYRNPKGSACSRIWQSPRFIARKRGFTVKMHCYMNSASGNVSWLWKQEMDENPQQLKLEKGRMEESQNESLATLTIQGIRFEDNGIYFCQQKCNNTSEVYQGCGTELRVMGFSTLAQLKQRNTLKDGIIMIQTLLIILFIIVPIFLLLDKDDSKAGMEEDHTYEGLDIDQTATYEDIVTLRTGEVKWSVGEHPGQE

B1: CARLY1 monoclonal murine antibody against CD79b (antibody, V domains shown)
VH: QVQLQQPGAELVRPGASVKLSCKASGYTFTSYWMNWVKQRPGQGLEWIGMIDPSDSETHYNQMFRDKATLTVDKPSNTAYMQLSRLTSEDSAVYYCARALGYWGQGTSVTVSS
VL: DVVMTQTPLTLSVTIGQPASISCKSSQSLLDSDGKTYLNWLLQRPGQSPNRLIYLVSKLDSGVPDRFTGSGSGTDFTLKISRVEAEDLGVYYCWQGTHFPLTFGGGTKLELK
notes: Murine monoclonal from a hybridoma, made by an external service; The variable domains are tied to the name CARLY 1 in the definition section
B2: CARLY2 monoclonal murine antibody against CD79b (antibody, V domains shown)
VH: QVQLQQPGAELVRPGASVKLSCKASGYTFTTYWMNWVKQRPGQGLEWIGMIDPSDSETHYNQMFKDKATLTVDKSSTTAYMQLSSLTSEDSAVYYCARTLSYWGQGTLVTVSA
VL: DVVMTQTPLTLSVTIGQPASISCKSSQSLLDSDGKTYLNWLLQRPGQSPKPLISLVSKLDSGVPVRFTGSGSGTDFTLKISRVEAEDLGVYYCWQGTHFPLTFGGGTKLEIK
notes: Murine monoclonal from a hybridoma; it was detected with anti-mouse IgG-Alexa647 in confocal microscopy
B3: CARLY3 monoclonal murine antibody against CD79b (antibody, V domains shown)
VH: QVQLQQPGAELVRPGASLKLSCKTSGYTFTDYWMNWVKQRPGQGLEWIGMIDPSDSETHYNQMFKDKATLTVDKSSSTAYMQLSSLTSEDSAVYYCTRNLNYWGQGTTLTVSS
VL: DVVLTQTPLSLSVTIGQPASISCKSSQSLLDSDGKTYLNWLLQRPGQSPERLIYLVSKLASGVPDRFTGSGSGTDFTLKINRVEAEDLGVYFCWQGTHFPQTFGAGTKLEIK
notes: as for B2

target: T1, CD79b; assay: flow cytometry on NHL cell lines Ramos and Daudi

Binding result, binds:
B1
B2
B3
